From patent US20130295121A1 (published 2013) come the findings set out here.

The target in test [1] is T1, soluble CD32B (sCD32B) (human, UniProt P31994 43-217, biotinylated where used as the ELISA probe).
T1 construct: extracellular domain; also called huCD32B; FcγRIIB
T1 sequence (looked up): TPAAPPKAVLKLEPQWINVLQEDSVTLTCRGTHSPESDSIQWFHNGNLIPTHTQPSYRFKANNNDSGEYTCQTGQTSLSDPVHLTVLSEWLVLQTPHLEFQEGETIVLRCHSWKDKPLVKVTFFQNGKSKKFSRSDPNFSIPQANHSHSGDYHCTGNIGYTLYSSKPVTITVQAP
The test can be described thus: SPR (BIAcore), sCD32B immobilized, diabody 6.25-200 nM as analyte, bivalent analyte fit. A general note: In SPR one partner is held on a chip, and binding of the other changes the refractive index at the surface.

The target of test [2] is T2, soluble CD32A (sCD32A) (UniProt P12318 34-217, limits assumed).
T2 construct: extracellular domain; Negative control receptor in SPR; also called control receptor
T2 sequence (looked up): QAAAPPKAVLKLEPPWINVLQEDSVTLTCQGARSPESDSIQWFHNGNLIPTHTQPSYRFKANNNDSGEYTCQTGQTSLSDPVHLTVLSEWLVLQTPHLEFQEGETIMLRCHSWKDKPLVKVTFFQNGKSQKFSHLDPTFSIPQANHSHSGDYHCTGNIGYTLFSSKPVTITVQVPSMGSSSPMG
The test can be described thus: SPR (BIAcore), receptor immobilized.

Test [3] has as its target T3, soluble CD16A (sCD16A) (human, UniProt P08637 17-208, biotin- or HRP-conjugated where used as the ELISA probe).
T3 construct: extracellular domain; Printed only as soluble CD16A; Also used here where an ELISA names only CD16 or CD16A; also called hCD16A; FcγRIIIA
The experiment in a line: SPR (BIAcore), receptor immobilized.

T3 sequence (P08637 17-208): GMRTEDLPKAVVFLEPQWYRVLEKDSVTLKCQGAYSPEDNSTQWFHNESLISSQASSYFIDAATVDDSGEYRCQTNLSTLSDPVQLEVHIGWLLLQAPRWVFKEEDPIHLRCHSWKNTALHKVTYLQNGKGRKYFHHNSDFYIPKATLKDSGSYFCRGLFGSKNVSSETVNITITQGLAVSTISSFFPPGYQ

B1: h2B6 covalent monospecific diabody (CMD) (other)
chain: EIVLTQSPDFQSVTPKEKVTFTCRTSQSIGTNIHWYQQKPDQSPKLLIKEVSESISGVPSRFSGSGSGTDFTLTINSLEAEDAATYYCQQSNTWPFTFGGGTKVEIKGGGSGGGGQVQLVQSGAEVKKPGASVKVSCKASGYTFTNYWIHWVRQAPGQGLEWIGVIDPSDTYPNYNKKFKGRVTMTVVVSTSTAYMELRSLRSDDTAVYYCARNGDSDYYSGMDYWGQGTTVTVSSLGGC
notes: Homodimer of construct 4 (hu2B6VL-hu2B6VH-LGGC); also called h2B6 CMD; h2B6 diabody
B1 registered a Kd in test [1] of 21 nM. For the same molecule, the binding result in test [2] and in test [3] was “no binding (tested: 100 nM)” each time.
